Source: the domain aggregation screens of Martell et al. (2025)

experiment: soluble fraction after stress (log2 fold change); higher = more stays soluble; pooled small domains, quantitative proteomics; conditions: stress: pH 4
How it was run: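 Aggregation propensity is estimated from the fold change in each domain's soluble amount after acid stress. Pooled small-domain libraries were stressed at pH 4, and higher log2 values mean more stayed soluble.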

Row | Sequence | soluble fraction (log2)
1 | HMSEEGTIPDVSGQDEASAQKALENAGFTNIKSEAVYSEEEQGTVIDTNPTAGTKVSKDTEITMQVSKGSE | 0.108
2 | HMSEEKLVFSIPDDIETMRIDKAIALETHLSRAQIAELFKENKILLNSKNSKRSEKVKPGDKISLEFIPKI | -0.0612
3 | HMSEEVKSQPISILDLSTRASNGLKNEGIETIGELVKYSEDELLGLDKFGQNSLKEIKKKLEEIGLTLKEH | -0.0527
4 | HMSEFLTIVRAVYSGLSRRKVAAMHKVSRNTVSLYLRQARDQGWLTLEDLEKLDDLTVSQGVS | -0.918
5 | HMSEFVIPLAKYNKALYTQVSLGMRFRMLFETEDSGVRRYMGTITGIGDLDPIRWKNSHWRNLQV | 0.22
6 | HMSEHLTLVVSDEDAGHRVDQFLVSRLAHMTRSQIQKLIKDGQVTIDTKLVRASTTVHTDNIVTIEFPPAV | 0.314
7 | HMSEKLTLEAANEAAGMRIDKWLAMQLPELSRSRIEALISGGGVVVNGKNPSKSLKLKGGEQIELEIPE | 0.108
8 | HMSELLIVGSEQDNTRLDRFLADQYEEYTRSFLQKLIDQGNVSINGISVKKSGIKLKENDEIAVTLPEPQ | -0.588
9 | HMSELPLTQKVAIVMVALGEEASGEVMKHLSDYEIEEITQAIAGLKNISVELMDQILEEYEQHLIAG | -0.536
10 | HMSELTKEIGKRIHDFRKSRGLNQEELARLIYKSKATLSKYEKGEIAIDLDTLKQLALALHVRMEQLLPPT | ≥ 0.43
11 | HMSENDTILAKFVSVMGNKNLELVIFPDIAYLKGQVSNPEDKTKAETVAQSLLGGKPLVSLIEFE | -0.917
12 | HMSENIQLQKEQLYQLIAQLPEQRQKIFRLHKIDNYSYQEISDFTGLSRKTIANHIYLAHQFILKKVKK | -0.28
13 | HMSENKIMEIVQDLAREKSVILISHRLANVTAADKILYMEQGKIAESGTHEQLMAQNKAYAALFNKQQEL | -0.0418
14 | HMSENLESEFFGIVVITQTLLQKELRDKPMTVELIRKTVEDVMSKHYSDSSVDKAKVEEELIRRFSTW | -1.75
15 | HMSENMSQDLAQWYRLQQALHPNLDAPELWATDLTSQQRTVRDQLIQQWAQEKRDSLWSEISGD | -0.618
16 | HMSEPFDMAVPLTSGGRRLDQVLAELLPQHSRNRLQGWIRDGLLTLDGVTVTEPKRKLAGGEQLALLLP | -0.238
17 | HMSEPTLESLRAEGAHHYDPARFHYLEVLARRMPGQHAAVQQVLASRLREAVAAYAGRRSLI | -0.252
18 | HMSEQSEALRTGLDQLPINQRTALTLFHLHELNQSEVAKIMNISVGAVESLLFRGRQKMKQLLTSD | -0.157
19 | HMSERIITFGEATREAMLEEMRADERVFVYGEDIAKQGGIFGQFAGMKDEFPERVLDTPISETALVGAG | -0.679
20 | HMSERVVVPDLTGKDLVAAQSELREISLAGREEGPGDKVRRQFPVAGVKVPKDTVVILYTED | 0.117
21 | HMSESAGKALDILFYLARVEDEVSLARLSKETGMNKATALRYLAVLESWGVVEKRPSGWSLGLSLFELGSK | -1.03
22 | HMSESGTFRAEAADAGRRLDVALAERLRLSRAAAQRLIAAGLVLVEGSPARKRQILHAGETVAWRAAPP | -0.0686
23 | HMSESLLTAAGFKTIAATTPEQKRHLEWLHPDQVTAVQLTGQHYYVYPDVAKSQLFVGTPKEYQAYLALRT | 0.00516
24 | HMSESLRDLVLSLIPEDGSTIGNRALITRLREDLPDLTDEDYHEVRDQLIAEGVLAKGRGQGGSVARANG | 0.0415
25 | HMSETIVFGQQKAINTLSSEAGLSSAELNNYLKKRYQRPLFQLTVSEGADLIQGFQDGTLTKASITQYVSQ | 0.22

Row | Sequence | soluble fraction (log2)
26 | HMSETQDQTTIEIEDMITVGTLAERLSIPVSTLIGELMKNGVMATVNEKIDFDTAQIIVGELKLPIELSKK | -0.269
27 | HMSEYEYALHEFGITKKQSQRIFDRLSIADLEERINAIQTTLKQRSDIDNPAAYAWTVLNAE | -0.767
28 | HMSEYLDIHMAMEKLNRKEQLFVHLRFYEGLTQSEIAQRLFTSQVQISRLEKSVLEKMRQILSK | -0.91
29 | HMSEYTRGELVSSLEAGEVAAVSIRPNRETPTGEAQIVLSDGQHRVLYVTDVREIEELVSSYGLNPQVEK | -0.233
30 | HMSFDNIKVGYISETAGYVKGISLADANEYAKLNPDTEFIFIDGDEKVRFLTINEVNGLTPKNLLRSDP | -1.6
31 | HMSFGFFELKSSDTDKLFAYLNNNEHFGNIKEENGLVTAFLTSELDAQTLNKLLFDNGIIASHLVKRK | -1.82
32 | HMSFMPDPSIHDAITYTVRSGDYLGKISTTFGVKVSDLQKWNSIKSNIIYPGQKLTVWVSSNKRESLQ | 0.194
33 | HMSFPLKRGSKGNRVTQLQNALVKKFGASILPKYGVDGMFGKEVEAALVRAKLPTSINESTYNSFV | -0.0036
34 | HMSFVAYEEEKAIGMVRLIGDGGMSFYIKDFAVLPGHQGKGVGQMLLMELQQYLLEHKPADWAVSLE | -1.47
35 | HMSGAKLLAPVTGTLLRYTVAEGTKVSEGQTVIMLESMKMELEINAHKAGVIHFTAAAGAQVAEGDSLAEI | -0.419
36 | HMSGDKKLQMNLILEFAQQNESFRTKDIEELLQIRSSRARKLISDLVTEGRLEALGENRNRRYQLI | -0.329
37 | HMSGDYRALYSSLPPERASSVVDALNVAGIPYRIQDSTGAIMVPAEQIYDARIRLAGQGLGK | 0.0695
38 | HMSGEPKNERQIEVPDVTKKSIREANNILTSEGLRLRIEGTGLAVSQKPAAGTMVEPDTIITVTFQAP | -0.0704
39 | HMSGHEVMVQRITAIIAELYQYGFVSRKKMMDEFNISERTLYRDLNRLGDRIVPDGDGIYRLAPAYA | -0.954
40 | HMSGHIPGIKIKGVIFFDKGSSSNHIIATTENNSNLKLRVGETVQGAVLKSIHPNHVIFFHHNQLIEVGIG | 0.0374
41 | HMSGKGEFDQLLRSGEYVQAFQRANANGNVTLRRQQLLNLARHQAASGVGSGAIESLSTIQRI | 0.104
42 | HMSGKMTVPNVVGKTETEAKSALSAKGFTNVRTETVDSTEAAGTVVKQSLDADSVQDPKTEIVLSVSNG | ≥ 0.43
43 | HMSGKWKIRILWYIAEYEVQRFGELRRRLGDITQSTLTEQLRELEQDGFVSRYVYQEVPSKVEYSLTE | -0.0562
44 | HMSGKWSILILHALEQGPKRFNVLHRELSGITQATLTKQLRQLEEDGIILRKAYPQIPPKVEYQLTEIG | 0.112
45 | HMSGNPLDTYYSKWSAEIKKGSPNAVISKEGDKYYVSIPGENRMAIIYENPHLIRMVNATRNIHVE | 0.0911
46 | HMSGPSDRDLFDEALALLSGSGREPDYHEARIRLGTLVEQFPESKWAEGAKALLSMLDRVSALQV | -0.673
47 | HMSGPVITEERNIANALISGLANMKETPTREQVERKAQQIAELFGYTGDLRNIITEAMISVDT | -0.137
48 | HMSGRPPTYTAEERSAVIAAALSRPADLGLPFASWTLDRLVAYLGEKGIGMKRSRMSEVLLAEGLKW | -0.0116
49 | HMSGSGYAYVDKYGYSHVVKDYDTAKNYASDGNVYNYSGSHKGGYAYDADNYRVPLDLPGSKPYG | -0.183
50 | HMSGSIIQQAENLERQFGDTREAILGTLSDPKMSEEILETLMERYNKQHGTNWDKNTWAEEWAKANK | -0.355

Row | Sequence | soluble fraction (log2)
51 | HMSGSILVQVSATDLNIRKGPGTNYGTTGKYTGKGTFTIVETRSGQGSNAGWGKLKSGAGWISLDYAKR | -0.0233
52 | HMSGTESMIEGRGEARTAIDGEGKVFFQGEYWTAQSDQFIPQGAKVRIKKVEGLNLIVEEIK | -0.796
53 | HMSGTYIVTVQANTLDIYKSMTSNDTIGKANKGDVFQILEDMGGGYAKVSYNDVEGYISIKDGDTSIDEM | -1.29
54 | HMSGVIVPDIYNKTLAEAVASLEGEGFSTEKKEGYSDTVPKGNVMSQKPEAGTSAERGSTVTITISQGPQ | -0.0347
55 | HMSGWIATGTATSTGNDVRVRSTPDATVNNNILLTLNKGNRFEIDGQTQNGFYHIKVNDTIGWISGLYVKE | 0.0378
56 | HMSGYFSDKKLNELFEQYLIMREKKGKPVVGYQLKILIDRLNQVAANTKEKIEVVSNAIAGDWNTFYPIKR | 0.0685
57 | HMSHDTLVYRLAQMLVKLNQGEKLDPQQLAEEFGVNLRTIQRDLNVRFAYLQLEKTDGRYHLDPTFL | -0.241
58 | HMSHLTKKQEEVLLFIRDYYEEEGRSPSYSDIQHHFGLKSKSSVQDYIGYLKKAGFLQKSVGSRAIELV | ≥ 0.43
59 | HMSHQIIIVAVELDPSTERIVYYLSKNGISINVLFFKVFQHGDEQFLSRVWLIDPSETQTNAALA | -0.424
60 | HMSIESMVGRFGVVTKDVVANEMAGKVKVGREEFRATADIAVSSGTKVKVTHAEGITLTVVPE | 0.0258
61 | HMSIGKEATPDDIVPNIRVYHATFGYGNVIKTDGVSHDKKAVVNFDSVGEKTLLLKFAKLILPY | -0.754
62 | HMSIGLEGFVGKLGISTSDLRPSGWGEFDAKKLFVVTEGEFVDRKEKIEILSVDGNRILVRKIS | -0.471
63 | HMSILPGVYRHYKGNHYQVFYLAKHSETLEDMVVYQALYGERGIWVRPASMWNETVDDQGKQVKRFTYI | -1.22
64 | HMSILYNAVKGTLVSSGALTADSWYKISSFGTASALPALKVGSIFKTPEGAGDAITLASGDSVYPLTLT | 0.021
65 | HMSINQTIEGKKQGYWIIYGNMRNLQEYLSNEVIEEGQFKNSRKEGVWRKYFPGGQMKSEITYINGRP | -0.93
66 | HMSINTIIAKNLNRLRNERNLSLGQLAELSGVSKVMLSQIEKGDSNPTVNTIWKIASGLNVPYTAILDQP | 0.22
67 | HMSIPVLKDGTYESWGNEKVYKVGDRVMVGSNGYVAKWWNQDETPEKAIINPNDSPWRPMTESEIMEVLK | -0.113
68 | HMSISEADAKKIALEKVPGATDSNLRIKTDYDDGIMKYEVKIVYNEMKYEFDIDAATGTILEWESESVY | 0.277
69 | HMSISSSEAARSAVASSGGTVLGVSKASHGGYKAWAVRIQRADGSVVTGYVDRASGTVYDWVVNQAA | 0.379
70 | HMSKEDDSLVVTFRRMLLEEVDLHELSRIDANQRRARLERVIAHLVSREGVILSASERNQLVRRVVDEAV | -0.801
71 | HMSKEEAIQAMKEGKKVTHRFFSSDEWMTIENGFLLLEDGVRISLEDFFNFRSDSLWDNGYELYNPH | -0.768
72 | HMSKFSDTLVYLRKRAGFSQQELADKMEVSRSLVGMYESGQRMPSYEMLEALADIFNVNIDFLTGH | -0.586
73 | HMSKIRSEINKFSSDADKPILEWLFERYHWASQWRFVARFSEQRYGVLSYEINRVWEPTIEGRALYDQL | -1.45
74 | HMSKKMLASIFDTISGIGKKRLKKIWDNYTSLNELKDDSLENIYAKTQIPINLITKIKEKLE | ≥ 0.43
75 | HMSKKMTNEEILNFLKKVLIKHGKISGFIIDEDDNGPSSSVVASRFGGLLNAYKLINYTPER | ≥ 0.43
